According to paper PMC9490039 (iScience, 2022):

Target: Kv7.2 wt (wild-type Kv7.2 channel subunit), tagged with EGFP or with mKate2 (human, UniProt O43526-1 1-872)
Assay: FRET or BRET

increase of EGFP intensity after photobleaching mKate2 (FRET): 12.1%
B1: Kv7.2mut-EGFP (Kv7.2 with in-frame deletion of histidine 260) (natural protein)
chain: MVQKSRNGGVYPGPSGEKKLKVGFVGLDPGAPDSTRDGALLIAGSEAPKRGSILSKPRAGGAGAGKPPKRNAFYRKLQNFLYNVLERPRGWAFIYHAYVFLLVFSCLVLSVFSTIKEYEKSSEGALYILEIVTIVVFGVEYFVRIWAAGCCCRYRGWRGRLKFARKPFCVIDIMVLIASIAVLAAGSQGNVFATSALRSLRFLQILRMIRMDRRGGTWKLLGSVVYAHSKELVTAWYIGFLCLILASFLVYLAEKGENDFDTYADALWWGLITLTTIGYGDKYPQTWNGRLLAATFTLIGVSFFALPAGILGSGFALKVQEQHRQKHFEKRRNPAAGLIQSAWRFYATNLSRTDLHSTWQYYERTVTVPMYSSQTQTYGASRLIPPLNQLELLRNLKSKSGLAFRKDPPPEPSPSKGSPCRGPLCGCCPGRSSQKVSLKDRVFSSPRGVAAKGKGSPQAQTVRRSPSADQSLEDSPSKVPKSWSFGDRSRARQAFRIKGAASRQNSEEASLPGEDIVDDKSCPCEFVTEDLTPGLKVSIRAVCVMRFLVSKRKFKESLRPYDVMDVIEQYSAGHLDMLSRIKSLQSRVDQIVGRGPAITDKDRTKGPAEAELPEDPSMMGRLGKVEKQVLSMEKKLDFLVNIYMQRMGIPPTETEAYFGAKEPEPAPPYHSPEDSREHVDRHGCIVKIVRSSSSTGQKNFSAPPAAPPVQCPPSTSWQPQSHPRQGHGTSPVGDHGSLVRIPPPPAHERSLSAYGGGNRASMEFLRQEDTPGCRPPEGNLRDSDTSISIPSVDHEELERSFSGFSISQSKENLDALNSCYAAVAPCAKVRPYIAEGESDTDSDLCTPCGPPPRSATGEGPFGDVGWAGPRK
